Measurements reported in publication PMC9482650, “Quantitative fragmentomics allow affinity mapping of interactomes” (Nature Communications, 2022).

Experiments:
Test in all cases: holdup assay
Set-up in all cases: key: below the threshold = too weak to quantify, mostly under pKd 3.1 to 4
Conditions in all cases: plain residues with an end cap or a label only (N-terminal biotin on a linker: ado-ado)
APBA3_1, O96018 = molecular target: T1, APBA3_1, O96018
T1 sequence (O96018 389-490, limits assumed, looked up): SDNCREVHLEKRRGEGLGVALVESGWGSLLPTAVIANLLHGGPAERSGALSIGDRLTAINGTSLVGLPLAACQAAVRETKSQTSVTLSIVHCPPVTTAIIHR

ARHGAP21, Q5T5U3 = molecular target: T2, ARHGAP21, Q5T5U3
T2 sequence (Q5T5U3 45-169, limits assumed, looked up): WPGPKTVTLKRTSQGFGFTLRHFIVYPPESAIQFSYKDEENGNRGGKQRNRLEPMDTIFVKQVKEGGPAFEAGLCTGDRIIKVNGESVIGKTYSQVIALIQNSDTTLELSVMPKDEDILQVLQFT

ARHGEF12, Q9NZN5-2 = molecular target: ARHGEF12, Q9NZN5-2
ARHGEF12, Q9NZN5-2, sequence (Q9NZN5 other isoform, or with tags, fused parts or gaps): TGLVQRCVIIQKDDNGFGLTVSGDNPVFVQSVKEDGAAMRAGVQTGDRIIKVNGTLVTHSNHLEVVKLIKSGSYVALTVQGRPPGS

CARD11, Q9BXL7 = molecular target: T3, CARD11, Q9BXL7
T3 sequence (Q9BXL7 662-765, limits assumed, looked up): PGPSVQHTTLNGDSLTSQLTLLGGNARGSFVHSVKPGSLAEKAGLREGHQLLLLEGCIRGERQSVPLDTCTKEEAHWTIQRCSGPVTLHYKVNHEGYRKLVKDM

DLG2_2, Q15700 = molecular target: DLG2_2, Q15700
DLG2_2, Q15700, sequence (Q15700 189-283): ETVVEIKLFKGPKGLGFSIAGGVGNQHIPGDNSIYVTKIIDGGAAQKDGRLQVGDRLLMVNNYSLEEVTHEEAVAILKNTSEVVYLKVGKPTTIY

DLG4_1, P78352 = molecular target: DLG4_1, P78352
DLG4_1, P78352, sequence (P78352 62-152): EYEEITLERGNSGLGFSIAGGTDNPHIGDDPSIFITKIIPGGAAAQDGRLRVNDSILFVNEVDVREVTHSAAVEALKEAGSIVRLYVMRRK

DVL3, Q92997 = molecular target: T4, DVL3, Q92997
T4 sequence (Q92997 244-331, limits assumed, looked up): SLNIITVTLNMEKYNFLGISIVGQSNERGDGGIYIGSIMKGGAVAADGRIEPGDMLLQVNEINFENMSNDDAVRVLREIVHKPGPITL

FRMPD2_3, Q68DX3 = molecular target: FRMPD2_3, Q68DX3
FRMPD2_3, Q68DX3, sequence (Q68DX3 1073-1166): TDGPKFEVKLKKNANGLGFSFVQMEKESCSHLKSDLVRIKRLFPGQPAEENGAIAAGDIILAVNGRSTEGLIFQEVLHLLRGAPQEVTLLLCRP

FRMPD4, Q14CM0 = molecular target: FRMPD4, Q14CM0
FRMPD4, Q14CM0, sequence (Q14CM0 67-160): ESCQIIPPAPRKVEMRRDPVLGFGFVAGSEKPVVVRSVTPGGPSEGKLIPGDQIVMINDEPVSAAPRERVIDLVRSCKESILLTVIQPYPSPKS

GORASP1, Q9BQQ3 = molecular target: GORASP1, Q9BQQ3
GORASP1, Q9BQQ3, sequence (Q9BQQ3 1-208): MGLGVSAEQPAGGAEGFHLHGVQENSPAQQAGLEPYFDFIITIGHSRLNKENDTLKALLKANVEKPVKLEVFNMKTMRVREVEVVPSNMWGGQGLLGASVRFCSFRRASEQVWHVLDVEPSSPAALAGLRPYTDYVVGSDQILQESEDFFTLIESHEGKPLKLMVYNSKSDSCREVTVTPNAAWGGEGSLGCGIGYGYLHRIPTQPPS

GRIP2_5, Q9C0E4 = molecular target: GRIP2_5, Q9C0E4
GRIP2_5, Q9C0E4, sequence (Q9C0E4 544-642): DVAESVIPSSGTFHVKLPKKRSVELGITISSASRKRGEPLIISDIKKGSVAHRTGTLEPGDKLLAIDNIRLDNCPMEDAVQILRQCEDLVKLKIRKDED

Inadl_10, Q8NI35 = molecular target: Inadl_10, Q8NI35
Inadl_10, Q8NI35, sequence (Q8NI35 1673-1763): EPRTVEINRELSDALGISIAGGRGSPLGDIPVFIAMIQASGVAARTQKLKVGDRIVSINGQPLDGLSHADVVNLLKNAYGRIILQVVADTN

Inadl_6, Q8NI35 = molecular target: Inadl_6, Q8NI35
Inadl_6, Q8NI35, sequence (Q8NI35 1058-1167): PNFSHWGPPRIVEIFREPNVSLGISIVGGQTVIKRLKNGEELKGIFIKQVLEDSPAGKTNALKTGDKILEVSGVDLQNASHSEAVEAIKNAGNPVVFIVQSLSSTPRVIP

Inadl_9, Q8NI35 = molecular target: Inadl_9, Q8NI35
Inadl_9, Q8NI35, sequence (Q8NI35 1530-1615): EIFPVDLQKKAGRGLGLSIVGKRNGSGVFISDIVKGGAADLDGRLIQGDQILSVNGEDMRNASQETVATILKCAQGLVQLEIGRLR

LDB3, O75112 = molecular target: LDB3, O75112
LDB3, O75112, sequence (O75112 1-94): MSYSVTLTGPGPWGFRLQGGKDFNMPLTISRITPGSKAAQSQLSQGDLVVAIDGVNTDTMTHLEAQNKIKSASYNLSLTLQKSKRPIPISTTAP

LNX1_1, Q8TBB1 = molecular target: LNX1_1, Q8TBB1
LNX1_1, Q8TBB1, sequence (Q8TBB1 261-371): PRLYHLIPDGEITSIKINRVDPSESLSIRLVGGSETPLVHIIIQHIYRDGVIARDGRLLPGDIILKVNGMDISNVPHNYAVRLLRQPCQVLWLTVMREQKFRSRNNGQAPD

LNX1_2, Q8TBB1 = molecular target: LNX1_2, Q8TBB1
LNX1_2, Q8TBB1, sequence (Q8TBB1 371-470): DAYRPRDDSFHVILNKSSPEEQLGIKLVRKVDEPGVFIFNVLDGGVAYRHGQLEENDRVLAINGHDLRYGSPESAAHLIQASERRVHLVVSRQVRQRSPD

MAGI1_1, Q96QZ7 = molecular target: MAGI1_1, Q96QZ7
MAGI1_1, Q96QZ7, sequence (Q96QZ7 1-106): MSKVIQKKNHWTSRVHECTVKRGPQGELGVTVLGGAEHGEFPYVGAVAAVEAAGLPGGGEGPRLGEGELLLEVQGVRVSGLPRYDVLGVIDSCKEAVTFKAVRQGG

MAGI2_2, Q86UL8 = molecular target: MAGI2_2, Q86UL8
MAGI2_2, Q86UL8, sequence (Q86UL8 410-522): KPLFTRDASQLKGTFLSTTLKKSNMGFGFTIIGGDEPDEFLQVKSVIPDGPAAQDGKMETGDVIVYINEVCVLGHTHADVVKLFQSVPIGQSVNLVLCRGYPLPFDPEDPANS

MAGI2_3, Q86UL8 = molecular target: MAGI2_3, Q86UL8
MAGI2_3, Q86UL8, sequence (Q86UL8 600-682): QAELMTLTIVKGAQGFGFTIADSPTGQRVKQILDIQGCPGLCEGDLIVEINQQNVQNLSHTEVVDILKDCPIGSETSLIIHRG

MAGI2_4, Q86UL8 = molecular target: MAGI2_4, Q86UL8
MAGI2_4, Q86UL8, sequence (Q86UL8 772-865): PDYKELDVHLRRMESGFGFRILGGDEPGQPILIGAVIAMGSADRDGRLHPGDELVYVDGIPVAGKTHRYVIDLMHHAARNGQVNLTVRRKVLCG

MAGI3_2, Q5TCQ9 = molecular target: MAGI3_2, Q5TCQ9
MAGI3_2, Q5TCQ9, sequence (Q5TCQ9 398-503): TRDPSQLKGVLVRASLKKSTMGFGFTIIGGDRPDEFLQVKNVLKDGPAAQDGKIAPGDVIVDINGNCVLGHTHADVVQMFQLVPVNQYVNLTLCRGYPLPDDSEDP

MPDZ_10, O75970 = molecular target: T5, MPDZ_10, O75970
T5 sequence (O75970 1624-1722, limits assumed, looked up): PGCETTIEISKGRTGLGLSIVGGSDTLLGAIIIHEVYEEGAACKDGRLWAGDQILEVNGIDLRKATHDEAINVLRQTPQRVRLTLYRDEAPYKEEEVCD

MPP7, Q5T2T1 = molecular target: T6, MPP7, Q5T2T1
T6 sequence (Q5T2T1 134-230, limits assumed, looked up): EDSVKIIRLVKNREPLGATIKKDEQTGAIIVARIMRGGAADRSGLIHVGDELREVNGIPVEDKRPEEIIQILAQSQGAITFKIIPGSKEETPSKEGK

NHERF3_4, Q5T2W1 = molecular target: T7, NHERF3_4, Q5T2W1
T7 sequence (Q5T2W1 373-468, limits assumed, looked up): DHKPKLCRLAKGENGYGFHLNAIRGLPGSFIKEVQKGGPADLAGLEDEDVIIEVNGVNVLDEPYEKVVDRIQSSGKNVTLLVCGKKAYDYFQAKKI

NOS1, P29475 = molecular target: NOS1, P29475
NOS1, P29475, sequence (P29475 9-101): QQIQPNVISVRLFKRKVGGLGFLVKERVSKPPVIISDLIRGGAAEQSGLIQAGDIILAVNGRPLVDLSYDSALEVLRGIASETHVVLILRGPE

PDZRN4_1, Q6ZMN7 = molecular target: PDZRN4_1, Q6ZMN7
PDZRN4_1, Q6ZMN7, sequence (Q6ZMN7 213-318): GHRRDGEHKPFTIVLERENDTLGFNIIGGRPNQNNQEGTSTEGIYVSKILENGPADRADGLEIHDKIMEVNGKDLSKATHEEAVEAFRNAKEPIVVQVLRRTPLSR

PTPN3, P26045 = molecular target: PTPN3, P26045
PTPN3, P26045, sequence (P26045 505-587): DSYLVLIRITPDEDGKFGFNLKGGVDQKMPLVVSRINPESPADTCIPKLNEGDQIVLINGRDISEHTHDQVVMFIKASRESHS

RADIL, Q96JH8 = molecular target: T8, RADIL, Q96JH8
T8 sequence (Q96JH8 971-1071, limits assumed, looked up): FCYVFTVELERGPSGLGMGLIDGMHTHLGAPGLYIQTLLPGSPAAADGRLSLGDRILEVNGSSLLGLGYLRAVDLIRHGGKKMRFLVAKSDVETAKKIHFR

SCRIB_3, Q14160 = molecular target: SCRIB_3, Q14160
SCRIB_3, Q14160, sequence (Q14160 999-1103): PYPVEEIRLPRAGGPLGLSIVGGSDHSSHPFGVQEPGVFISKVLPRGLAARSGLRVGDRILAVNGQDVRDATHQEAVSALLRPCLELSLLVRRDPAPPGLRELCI

Measured: pKd

GCQGETEDVL [PTH2R, P49190]
3.92: SCRIB_3, Q14160
4.21: FRMPD4, Q14CM0
3.51: DLG4_1, P78352
4.18: ARHGAP21, Q5T5U3
3.78: PTPN3, P26045
3.67: NOS1, P29475
below the threshold: all other assays above

SRPRPDDLEI [GJA1, P17302]
3.74: ARHGAP21, Q5T5U3
below the threshold: all other assays above

PMESGICTIV [TTC24, A2A3L6]
4.11: MAGI2_2, Q86UL8
4.72: GORASP1, Q9BQQ3
3.53: FRMPD2_3, Q68DX3
4.06: Inadl_9, Q8NI35 | SCRIB_3, Q14160
4.67: LNX1_1, Q8TBB1
4.52: MAGI3_2, Q5TCQ9
4.53: MAGI2_4, Q86UL8
4.87: DLG2_2, Q15700
4.37: LNX1_2, Q8TBB1
4: Inadl_6, Q8NI35
3.75: Inadl_10, Q8NI35 | PTPN3, P26045
3.98: NOS1, P29475
5.38: RADIL, Q96JH8
4.47: ARHGEF12, Q9NZN5-2
3.76: MPDZ_10, O75970
3.65: DVL3, Q92997
4.71: DLG4_1, P78352
3.96: ARHGAP21, Q5T5U3
below the threshold: all other assays above
